From patent US7659073

Key:
[1] = tested on: [-2]pPSA
[2] = tested on: [-4]pPSA
[3] = tested on: [-5]pPSA
[4] = tested on: [-7]pPSA

Row | Substance | relative rate of pPSA activation by hK2 (HIC-HPLC) [1] | relative rate of pPSA activation by hK2 (HIC-HPLC) [2] | relative rate of pPSA activation by hK2 (HIC-HPLC) [3] | relative rate of pPSA activation by hK2 (HIC-HPLC) [4] | cleavage of the pro leader by trypsin (N-terminal sequencing) [1]
1 | human kallikrein 2 (hK2) | [-2]pPSA was not activated by hK2 | the [-4]pPSA was activated more slowly | The [5/-7]pPSA was activated most rapidly | The [5/-7]pPSA was activated most rapidly | 
2 | trypsin |  |  |  |  | there was little or no cleavage to release the SR dipeptide of the [-2]pPSA (data not shown)
